According to patent US20260242839A1, “GLYCOSIDE PRODUCT BIOSYNTHESIS AND RECOVERY” (Manus Bio Inc., priority 2023, published 2026):
Numbering of substitutions follows the chain as printed. In names and notes the source's numbering stands. Several values for one entry are separate records, joined by “and”; a condition that tells them apart may be missing. Equal entries are not always repeated.

B1: S20E: mutation to UGT enzyme of SEQ ID NO: 13 (protein)
chain: MATKGSSGMSLAERFWLTLERSSLVVGRSCVEFEPETVPLLSTLRGKPITFLGLMPPLHEGRREDGEDATVRWLDAQPAKSVVYVALGSEVPLGVEKVHELALGLELAGTRFLWALRKPTGVSDADLLPAGFEERTRGRGVVATRWVPQMSILAHAAVGAFLTHCGWNSTIEGLMFGHPLIMLPIFGDQGPNARLIEAKNAGLQVARNDGDGSFDREGVAAAIRAVAVEEESSKVFQAKAKKLQEIVADMACHERYIDGFIQQLRSYKDDSGYSSSYAAAAGMHVVICPWLAFGHLLPCLDLAQRLASRGHRVSFVSTPRNISRLPPVRPALAPLVAFVALPLPRVEGLPDGAESTNDVPHDRPDMVELHRRAFDGLAAPFSEFLGTACADWVIVDVFHHWAAAAALEHKVPCAMMLLGSAEMIASIADERLEHAETESPAAAGQGRPAAAPTFEVARMKLIR
B2: M55L: mutation to UGT enzyme of SEQ ID NO: 13 (protein)
chain: B1 chain with E20S, M55L
B3: K99F: mutation to UGT enzyme of SEQ ID NO: 15 (protein)
chain: MARRTKNSSGMSLAERFWLTLSRSSLVVGRSCVEFEPETVPLLSTLRGKPITFLGLMPPLPEGRREDGEDATVRWLDAQPAKSVVYVALGSEVPLGVEFVHELALGLELAGTRFLWALRKPTGVSDADLLPAGFEERTRGRGVVATRWVPQMSILAHAAVGAFLTHCGWNSTIEGLMFGHPLIMLPITGDQGPNARLIEAKNAGLQVARNDGDGSFDREGVAAAIRAVAVEEESSKVFQEKAKKLQEIVADMACHERYIDGFIQQLRSYKDDSGYSSSYAAAAGMHVVICPWLAFGHLLPCLDLAQRLASRGHRVSFVSTPRNISRLPPVRPALAPLVAFVALPLPRVEGLPDGAESTNDVPHDRPDMVELHRRAFDGLAAPFSEFLGTACADWVIVDSFHHWAAAAALEHKVPCAMMFLGSAEMIASIADERLEHAETESPAAAGQGRPAAAPTFEVARMKLIR
B4: S310T: mutation to UGT enzyme of SEQ ID NO: 15 (protein)
chain: B3 chain with F99K, S310T
B5: A81K: mutation to UGT enzyme of SEQ ID NO: 15 (protein)
chain: B3 chain with A81K, F99K
B6: L205Y: mutation to UGT enzyme of SEQ ID NO: 15 (protein)
chain: B3 chain with F99K, L205Y
B7: A81G: mutation to UGT enzyme of SEQ ID NO: 15 (protein)
chain: B3 chain with A81G, F99K
B8: G189Y: mutation to UGT enzyme of SEQ ID NO: 15 (protein)
chain: B3 chain with F99K, G189Y
B9: K99E: mutation to UGT enzyme of SEQ ID NO: 15 (protein)
chain: B3 chain with F99E
B10: M425S: mutation to UGT enzyme of SEQ ID NO: 15 (protein)
chain: B3 chain with F99K, M425S
B11: A451R: mutation to UGT enzyme of SEQ ID NO: 15 (protein)
chain: B3 chain with F99K, A451R
B12: P442G: mutation to UGT enzyme of SEQ ID NO: 15 (protein)
chain: B3 chain with F99K, P442G
B13: G96M: mutation to UGT enzyme of SEQ ID NO: 15 (protein)
chain: B3 chain with G96M, F99K
B14: L298F: mutation to UGT enzyme of SEQ ID NO: 15 (protein)
chain: B3 chain with F99K, L298F
B15: M152A_S153A: SEQ ID NO: 15 with mutations M152A, S153A (protein)
chain: B3 chain with F99K, M152A, S153A
B16: P442D: mutation to UGT enzyme of SEQ ID NO: 15 (protein)
chain: B3 chain with F99K, P442D
B17: S125V: mutation to UGT enzyme of SEQ ID NO: 15 (protein)
chain: B3 chain with F99K, S125V
B18: H402W: mutation to UGT enzyme of SEQ ID NO: 15 (protein)
chain: B3 chain with F99K, H402W
B19: SEQ ID NO: 83: UGT73C33 (Glycyrrhiza uralensis) (protein, listed as Glycyrrhiza sp.)
chain: MAVFQANQPHFVLFPLMAQGHIIPMIDIARLLAQRGAIVTIFTTPKNASRFTSVLSRAVSSGLQIRLVHLHFPSKEAGLPEGCENLDMVASHDMICNIFQAIRMLQKQAEELFETLTPKPSCIISDFCIPWTTQVAEKHHIPRISFHGFSCFCLHCMLKIHTSKVLEGITSESEYFTVPGIPDQIQVTKQQVPGPMIDEMKEFGEQMRDAEIRSYGVIINTFEELEKAYVNDYKKERNGKVWCIGPVSLCNKDGLDKAQRGNKASISEHHCLEWLDLQQPNSVIYVCLGSLCNLTPPQLMELALGLEATKRPFIWVIREGNKFEELEKWISEEGFEERIKGRGLIIRGWAPQVLILSHPSIGGFLTHCGWNSTLEGVTAGVPMVTWPLFADQFLNEKLVTQVLRIGVSLGVDVPLKWGEEEKVGVQVKKEGIEKAICMVMDEGEESKERRERAKELSEMAKRAVEKDGSSHLNMTMLIQDIMQQSSSKVET
B20: SEQ ID NO: 81: UGT enzyme (Camelina sativa) (protein, listed as Camelina sativa)
chain: MASEKTLQVHPPLHFVLFPFMAQGHMIPMVDIARLLAQRGATVTIVTTRYNAGRFENVLSRAVESGLPINIVHVKFPYEEVGLPKGKENIDSLDSMELMVPFFKAVNMLQDPVVKLMEEMESRPSCIISDLLLPYTSKIAKKFNIPKIVFHGISCFCLLCVHVLRRNLEILTNLKSDKEYFLVPSFPDRVEFTKPQVTVETNASGDWKEFLDEMVEAEDTSYGVIINTFEELEPAYVKDYKDARAGNVWSIGPVSLCNKAGVDKAERGNKATIDQDECLKWLDSKEEGSVLYVCLGSICNLPLVQLKELGLGLEESQRPFIWVIRGWEKYNELSEWMVESGFEERIRERGLLIRGWAPQVLILSHPSVGGFLTHCGWNSTVEGITSGVPLITWPLFGDQFCNQTLVVQVLKAGVSVGVEEVMKWGEEEKIGVLVDKEGVKKAVEDLMGESDDAKERTKRVKELGGLAHKAVEEGGSSHSNITLFLQDIRQVQSV

Assays:
steviol glycoside [1] = experiment: steviol glycoside bioconversion by E. coli expressing individual mutations of UGT SEQ ID NO: 13; format: cell-based; settings: fold improvement of % conversion vs parent UGT SEQ ID NO: 13; stevia leaf extract and glucose fed; 37° C., 48 hr
Text: A UGT enzyme referred to as MbUGT1,2 is described in U.S. Pat. No. 10,743,567, which is hereby incorporated by reference. An engineered version of MbUGT1,2 (SEQ ID NO: 13) is described in US 2020/0087692, which is hereby incorporated by reference in its entirety. The UGT enzyme of SEQ ID NO: 13 was further engineered to improve activity for steviol glycoside bioconversion. […] Fold improvement is with respect to % steviol glycoside conversion of the parent UGT enzyme (SEQ ID NO: 13). SEQ ID NO: 14 has the following mutations from SEQ ID NO: 13: G5N, F186T, V397S. Stevia leaf extract and glucose were fed to the bioconversion strains. Bioconversion took place at 37° C. for 48 hr. Data were quantified by reverse phase LC DAD to quantify conversion of steviol glycosides.
(§1) Fold improvement (FI) is with respect to % steviol glycoside conversion.

steviol glycoside [2] = experiment: steviol glycoside bioconversion by E. coli expressing individual mutations of UGT SEQ ID NO: 15; format: cell-based; settings: fold improvement of % conversion vs parent UGT SEQ ID NO: 15; stevia leaf extract and glucose fed; 37° C., 48 hr
Procedure: Fold improvement is with respect to % steviol glycoside conversion of the parent UGT enzyme of SEQ ID NO: 15. SEQ ID NO: 16 has the following mutations from SEQ ID NO: 15: M152A, S153A. Stevia leaf extract and glucose were fed to the bioconversion strains. Bioconversion took place at 37° C. for 48 hr. Data were quantified by reverse phase LC DAD to quantify conversion of steviol glycosides.
as §1

mogrol = experiment: primary glycosylation at C3 and C24 hydroxyls of mogrol by cells expressing UGT enzymes; format: cell-based, E. coli; settings: mogrol fed; 37° C., 48 hrs; LCMS/MS
Procedure: Specifically, mogrol was fed to cells expressing various UGT enzymes. Reactions were incubated at 37° C. for 48 hrs. Products were quantified by LCMS/MS with authentic standards of each compound.

| Molecule | FI % Stevioside −> rebE (steviol glycoside [2]) | FI % rebA −> rebD (steviol glycoside [2]) | also measured |
| --- | --- | --- | --- |
| B1 |  |  | FI %Stevioside→rebE (steviol glycoside [1]): 1.2; FI %rebA→rebD (steviol glycoside [1]): 1.1 |
| B2 |  |  | FI %Stevioside→rebE (steviol glycoside [1]): 1.1; FI %rebA→rebD (steviol glycoside [1]): 1.0 |
| B3 | 1.08 | 1.08 |  |
| B4 | 1.04 | 1.04 |  |
| B5 | 1.02 and 1.01 | 1.04 and 1.02 |  |
| B6 | 1.03 | 1.04 |  |
| B7 | 1.09 | 1.04 |  |
| B8 | 1.04 | 1.04 |  |
| B9 | 1.02 | 1.03 |  |
| B10 | 1.03 | 1.02 |  |
| B11 | 0.99 | 1.02 |  |
| B12 | 1.01 | 1.01 |  |
| B13 | 1.03 and 1.10 | 1.01 and 1.10 |  |
| B14 | 1.01 | 0.97 |  |
| B15 | 1.32 | 1.26 |  |
| B16 | 1.18 | 1.19 |  |
| B17 | 1.16 | 1.13 |  |
| B18 | 1.07 | 1.09 |  |
| B19 |  |  | C3 O-Glucosylation (mogrol): No; C24 O-Glucosylation (mogrol): Yes |
| B20 |  |  | C3 O-Glucosylation (mogrol): No; C24 O-Glucosylation (mogrol): Yes |
